Measured values taken from the Immune Epitope Database (IEDB).

Tests used:
[1] = biological target: HLA-A*24:02; test: IEDB peptide-MHC binding, purified MHC/competitive/radioactivity; filed as Kd, often an IC50 or EC50 that approximates it; ≥ and ≤ were set here for values at or beyond the usual limits of such assays
[2] = biological target: HLA-A*26:01; test: as above
[3] = biological target: HLA-A*29:02; test: as above
[4] = biological target: HLA-A*30:02; test: as above
[5] = biological target: HLA-A*23:01; test: as above
[6] = biological target: HLA-A*01:01; test: as above
[7] = biological target: HLA-A*02:01; test: IEDB peptide-MHC binding, purified MHC/competitive/fluorescence; ≥ and ≤ were set here for values at or beyond the usual limits of such assays
[8] = biological target: HLA-A*30:01; test: IEDB peptide-MHC binding, purified MHC/competitive/radioactivity; filed as Kd, often an IC50 or EC50 that approximates it; ≥ and ≤ were set here for values at or beyond the usual limits of such assays
[9] = biological target: HLA-A*11:01; test: as above; details: source organism: Dengue virus 2 Jamaica/1409/1983
[10] = biological target: HLA-A*03:01; test: as above; details: source organism: Dengue virus 2 Jamaica/1409/1983
[11] = source organism: SARS coronavirus Tor2
[12] = source organism: Dengue virus 4 Philippines/H241/1956
[13] = source organism: Mammarenavirus lassaense
[14] = source organism: Zaire ebolavirus
[15] = source organism: Vaccinia virus WR
[16] = source organism: Dengue virus 3 Singapore/8120/1995

Sequence: HMVVKSALL
- Kd [1, 11]: 12200 nM
- Kd [2, 11]: 13100 nM
- Kd [3, 11]: 511 nM
- Kd [4, 11]: 954 nM
- Kd [5, 11]: 13900 nM
- Kd [6, 11]: 15100 nM

Sequence: ENPYRTWAY
- Kd [2, 12]: 4380 nM

Sequence: VDINLIPLI
- Kd [1, 13]: 2950 nM
- Kd [2, 13]: ≥ 77900 nM
- Kd [3, 13]: ≥ 78900 nM
- Kd [4, 13]: ≥ 76900 nM
- Kd [5, 13]: 1610 nM
- Kd [6, 13]: 19500 nM

Sequence: AIVNAQPKC
- IC50 [7, 14]: ≥ 73800 nM

Sequence: KNKESLPML
- Kd [8, 15]: 18.3 nM

Sequence: IFFASFYYIW
- Kd [1, 11]: 24.3 nM
- Kd [2, 11]: 1370 nM
- Kd [3, 11]: 31.6 nM
- Kd [4, 11]: 12100 nM
- Kd [5, 11]: 0.529 nM
- Kd [6, 11]: 1270 nM

Sequence: RSEELSFTV
- IC50 [7, 14]: 2380 nM

Sequence: ILSDDAVVCY
- Kd [1, 11]: ≥ 70300 nM
- Kd [2, 11]: ≥ 38800 nM
- Kd [3, 11]: 320 nM
- Kd [4, 11]: 2100 nM
- Kd [5, 11]: ≥ 70000 nM
- Kd [6, 11]: 10.2 nM

Sequence: LASLTPKAQ
- IC50 ([7]; source organism: Variola virus): ≥ 206000 nM

Sequence: DYAEISFML
- Kd [1, 11]: ≥ 105000 nM
- Kd [2, 11]: ≥ 68900 nM
- Kd [3, 11]: 100 nM
- Kd [4, 11]: 440 nM
- Kd [5, 11]: ≥ 90700 nM
- Kd [6, 11]: ≥ 22500 nM

Sequence: EKLRIKGMSY
- Kd [2, 12]: 4650 nM

Sequence: GLNLEGNGV
- IC50 [7, 14]: 10800 nM

Sequence: ILPEEQDQNY
- Kd [4, 16]: ≥ 37200 nM
- Kd [6, 16]: ≥ 38700 nM

Sequence: RVRYLTRNY
- Kd [8, 15]: 5.62 nM

Sequence: TLILAGVSLL
- Kd ([2]; source organism: Dengue virus 3 Martinique/1243/1999): 6690 nM

Sequence: LICGLRQLA
- IC50 [7, 14]: 995 nM

Sequence: EQGLIQYPT
- IC50 [7, 14]: 60500 nM

Sequence: SILASSLLK
- Kd ([8]; source organism: Dengue virus 2 Jamaica/1409/1983): 190 nM
- Kd [9]: 11 nM
- Kd [10]: 13.8 nM

Sequence: EWSVATFYLF
- Kd [1, 11]: 27.2 nM
- Kd [3, 11]: 17.4 nM
- Kd [4, 11]: 1730 nM
- Kd [5, 11]: 0.0328 nM
- Kd [6, 11]: 1160 nM

Sequence: SLNITTLRAV
- Kd [1, 13]: ≥ 70300 nM
- Kd [2, 13]: ≥ 69700 nM
- Kd [3, 13]: ≥ 71400 nM
- Kd [4, 13]: 1700 nM
- Kd [5, 13]: ≥ 70000 nM
- Kd [6, 13]: ≥ 70400 nM
